Key:
[1] = target: Endogenous Ser65-phosphorylated BIMEL in cerebellar granule neurons (UniProt O88498)
Recombinant GST-Pin1 = target: T1, Recombinant GST-Pin1 (UniProt Q13526 1-163); assay: GST-Pin1 pulldown from 293T lysates, anti-FLAG immunoblot
T1 construct: Bait in GST pulldown assays; not shown: glutathione S-transferase (GST) fusion partner
T1 sequence (Q13526 whole entry, the tested form may be a part): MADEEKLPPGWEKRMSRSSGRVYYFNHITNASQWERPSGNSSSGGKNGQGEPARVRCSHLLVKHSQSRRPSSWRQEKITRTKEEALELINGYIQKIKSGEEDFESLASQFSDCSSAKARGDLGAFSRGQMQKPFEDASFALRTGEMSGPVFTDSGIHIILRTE

Chain of Endogenous Ser65-phosphorylated BIMEL in cerebellar granule neurons (O88498 whole entry): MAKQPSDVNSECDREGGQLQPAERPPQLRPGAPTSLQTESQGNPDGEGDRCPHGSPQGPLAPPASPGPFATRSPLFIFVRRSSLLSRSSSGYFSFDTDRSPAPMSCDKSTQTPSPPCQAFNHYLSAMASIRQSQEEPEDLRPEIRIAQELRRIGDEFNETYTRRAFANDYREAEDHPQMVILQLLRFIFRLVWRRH

Molecule | BIMEL protein levels in granule neurons after Pin1 RNAi lentivirus (immunoblot) [1] | binding result (Recombinant GST-Pin1)
Endogenous Pin1 in cerebellar granule neurons | 46±1.5% reduction | –
FLAG-tagged JIP3 fragment 144-241 (other, UniProt Q9ESN9 144-241, looked up, Expressed in 293T cells; not shown: 3xFLAG tag of the 3xFLAG CMV-7.1 vector) ADQISRLEERESEMKKEYNALHQRHTEMIQTYVEHIERSKMQQVGGSGQTESSLPGRSRKERPTSLNVFPLADGMVRAQMGGKLVPAGDHWHLSDLGQ | – | no binding

Source: patent US20070282017A1 (Harvard, published 2007)
